Measurements taken from patent US20240082302A1 (University of Pennsylvania, published 2024).

T1: human TIM-3 expressed on cells (NB4-TIM3 cells; human AML leukemic stem cells) (human, UniProt Q8TDQ0 22-301)
T1 construct: whole, on cells; also called NB4-expressing human TIM-3
T1 sequence (looked up): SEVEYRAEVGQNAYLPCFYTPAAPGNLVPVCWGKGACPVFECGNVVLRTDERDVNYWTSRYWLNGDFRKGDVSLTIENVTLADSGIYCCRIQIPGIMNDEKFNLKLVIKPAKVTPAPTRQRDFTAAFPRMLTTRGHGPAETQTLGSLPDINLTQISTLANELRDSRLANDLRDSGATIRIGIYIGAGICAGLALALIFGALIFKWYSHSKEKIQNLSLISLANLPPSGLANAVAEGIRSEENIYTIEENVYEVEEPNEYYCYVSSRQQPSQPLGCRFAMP

B1: Anti-TIM3 VHH33 (VHH)
VHH: QVQLQESGGGLVQPGGSLRLSCAVSGLTPDAYVMGWFRQAPGKEREGVSCISPSGGTTSYPDSVKGRFTISRDNAKNTVYLQMNSLKPEDTGVYYCAAVAGRWCDYGMNYYGKGTQVTVSS
notes: Llama VHH tested as a phage clone (pCOMB3X phage display) by flow cytometry on cells
B2: Anti-TIM3 VHH30 (VHH)
VHH: QVQLQESGGGLVQAGGSLRLSCAASGFTFGSYVMGWFRQAPGKEREFVASISTSGGITSYADSVKGRFTVSRDNAKNTVYLQMNSLKPEDTAVYYCARDLTYYRTGGRLPDNANGYAYWGQGTQVTVSS
notes: as for B1
B3: Anti-TIM3 VHH32 (VHH)
VHH: QVQLQESGGGLVQAGGSLNLSCAASGSSFRLYTVGWHRQAPGKQRELVAWISGAGSTNYHSSVKGRFTISRDNAKNTALLQMNNLAPEDTAVYYCNLLNYWGQGTQVTVSS
notes: as for B1
B4: Anti-TIM3 VHH12 (VHH)
VHH: QVQLQESGGGLVQTGDSLRLSCVVSGGTFRNYVMGWFRQAPGKEREFVSAMNWSGGITVYADSVKGRFTISRDNAKNAVYLQMGSLKPGDTAVYYCAAAAIDGGTVRSINSYAYWGQGTQVTVSS
notes: Llama VHH isolated as a phage display clone (pCOMB3X)
B5: Anti-TIM3 VHH38 (VHH)
VHH: QVQLQESGGGLVQAGDSLRLSCAVGRTFSASTLGWFRQSPGKEREFVAAISWWRGEAYYGDSVKGRFTISRDNTKTTINLQMNSLKPEDTAVYYCARAQFDGATRADDYDNWGQGTQVTVSS
notes: as for B4
B6: Anti-TIM3 VHH13 (VHH)
VHH: QVQLQESGGGLVQAGGSLSLSCAASGRTFKNYLMAWFRQTPGKEREFVAAITQLGTRSLNEDFVKGRFTISRDNAKNTVYLQMNDLKTDDTGVYSCAASLQSGGSLRYAKYDYWGQGTQVTVSS
notes: as for B4

target: T1, human TIM-3 expressed on cells …; assay: flow cytometry, VHH phage clones on NB4 cells expressing human TIM-3

| Binder | binding result |
| --- | --- |
| B1 | binds |
| B2 | binds |
| B3 | binds |

target: T1, human TIM-3 expressed on cells …; assay: phage display panning/screening on TIM-3 expressing NB4 cells
Text: To generate VHHs targeting human TIM-3, human recombinant extracellular TIM-3 purified from HEK293 cells was used to immunize llamas, and the resulting VHH phage display libraries were constructed. The phage VHH clones targeting TIM-3 were screened by panning through TIM-3 expressing NB4 cells. The positive clones specifically binding to TIM-3 expressing NB4 cells were isolated. DNA encoding each of the VHHs, including VHH30, 32, and 33, were sequenced. The sequences were consistent with the predicted sequences for VHHs. Each of the VHHs, with both nucleotide and amino acid sequences, are listed below.

| Binder | binding result |
| --- | --- |
| B4 | binds |
| B5 | binds |
| B6 | binds |
